{
  "source": "patent US20260167959A1",
  "about": "“APTAZYME-BASED REGULATABLE GENE EXPRESSION SYSTEMS” (REJUVENATE BIO INC, priority 2022, published 2026)",
  "data": [
    {"tested_on": "Renilla luciferase RNA", "assay": "Barcoded aptazyme variant library screen: un-cleaved Renilla luciferase RNA by barcode read counts, HEK293-T cells", "assay_type": "cell-based", "conditions": "un-cleaved Renilla luciferase RNA by barcode read counts; with 1 mM theophylline (ON) over without theophylline (OFF); HEK293-T cells; triplicate", "outline": "(§1)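 Barcode sequencing of cDNA versus DNA, normalized per aptazyme, gave the un-cleaved Renilla luciferase RNA fraction and fold-change with versus without theophylline (triplicates). Library: T3H48 ribozyme with one of seven theophylline aptamer variants inserted at each position, placed in the Renilla 3′ UTR of a dual-luciferase vector.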", "values": [
      {"molecule": "RA416 (nucleic acid, expressed or natural sequence) DNA: GCGCGTCCTGGACGGAATACCAGCATCGTCTTGATGCCCTTGGAAGTCCGTTCGCGGAAACGCGTACATCCAGCTGACGAGTCCCAAATAGGACGAAACGCGC", "Fold change in RNA expression between the ON state and the OFF state": 0.7},
      {"molecule": "RA407 (nucleic acid, expressed or natural sequence) DNA: GCGCGTCCTGGATTCGCGGAAACGCGTACATCCAGCTGACGAGTCCCAAATAGGACGGAATACCAGCATCGTCTTGATGCCCTTGGAAGTCCGAAACGCGC", "Fold change in RNA expression between the ON state and the OFF state": 0.7},
      {"molecule": "RA414 (nucleic acid, expressed or natural sequence) DNA: GCGCGTCCTGGATTCGCGGAAACGCGTACATCCAGCTGACGAGTCCCCCGGAATACCAGCATCGTCTTGATGCCCTTGGAAGTCCGGAAATAGGACGAAACGCGC", "Fold change in RNA expression between the ON state and the OFF state": 0.7},
      {"molecule": "RA404 (nucleic acid, expressed or natural sequence) DNA: GCGCGTCCTGGATTCGCGGAAGGAATACCAGCATCGTCTTGATGCCCTTGGAAGTCCACGCGTACATCCAGCTGACGAGTCCCAAATAGGACGAAACGCGC", "Fold change in RNA expression between the ON state and the OFF state": 0.7},
      {"molecule": "RA413 (nucleic acid, expressed or natural sequence) DNA: GCGCGTCCTGGATTCGCGGAAACGCGTAGAATACCAGCATCGTCTTGATGCCCTTGGAAGTCTACATCCAGCTGACGAGTCCCAAATAGGACGAAACGCGC", "Fold change in RNA expression between the ON state and the OFF state": 0.7},
      {"molecule": "RA411 (nucleic acid, expressed or natural sequence) DNA: GCGCGTCCTGGATTCGCGGAAACGCGTACATCCAGCTGACGAGTCCCAAATAGCGAGAATACCAGCATCGTCTTGATGCCCTTGGAAGTCTCGGACGAAACGCGC", "Fold change in RNA expression between the ON state and the OFF state": 0.7},
      {"molecule": "RA427 (nucleic acid, expressed or natural sequence) DNA: GCGCGTCCTGCCGGAATACCAGCATCGTCTTGATGCCCTTGGAAGTCCGGGATTCGCGGAAACGCGTACATCCAGCTGACGAGTCCCAAATAGGACGAAACGCGC", "Fold change in RNA expression between the ON state and the OFF state": 0.6},
      {"molecule": "RA424 (nucleic acid, expressed or natural sequence) DNA: GCGCGTCCTGGATTCGCGGAAACGCGTACATCCAGCTGCGAGAATACCAGCATCGTCTTGATGCCCTTGGAAGTCTCGACGAGTCCCAAATAGGACGAAACGCGC", "Fold change in RNA expression between the ON state and the OFF state": 0.6},
      {"molecule": "RA421 (nucleic acid, expressed or natural sequence) DNA: GCGCGTCCTGGATTCGCGGAAAGAGAATACCAGCATCGTCTTGATGCCCTTGGAAGTCTCCGCGTACATCCAGCTGACGAGTCCCAAATAGGACGAAACGCGC", "Fold change in RNA expression between the ON state and the OFF state": 0.6},
      {"molecule": "RA417 (nucleic acid, expressed or natural sequence) DNA: GCGCGTCCTGGATTCGCGGAAACGCGTACATCCAGCTGACGAGTCCCAAATCGGAATACCAGCATCGTCTTGATGCCCTTGGAAGTCCGAGGACGAAACGCGC", "Fold change in RNA expression between the ON state and the OFF state": 0.7},
      {"molecule": "RA418 (nucleic acid, expressed or natural sequence) DNA: GCGCGTCCTGGATTCGCGGAAACGCGTACATCGAGAATACCAGCATCGTCTTGATGCCCTTGGAAGTCTCGCCAGCTGACGAGTCCCAAATAGGACGAAACGCGC", "Fold change in RNA expression between the ON state and the OFF state": 0.7},
      {"molecule": "RA406 (nucleic acid, expressed or natural sequence) DNA: GCGCGTCCTGGATTCGCGGAAACGCGTACATCCAGCTGACGAGTCCCCGGAATACCAGCATCGTCTTGATGCCCTTGGAAGTCCGAAATAGGACGAAACGCGC", "Fold change in RNA expression between the ON state and the OFF state": 0.7},
      {"molecule": "RA410 (nucleic acid, expressed or natural sequence) DNA: GCGCGTCCTGGATTCGCGGAAACGCGTACATCCAGCTGACGAGTCCCAGTGATACCAGCATCGTCTTGATGCCCTTGGCAGCACTAAATAGGACGAAACGCGC", "Fold change in RNA expression between the ON state and the OFF state": 0.7},
      {"molecule": "RA412 (nucleic acid, expressed or natural sequence) DNA: GCGCGTCCTGGATTCGCGGAGTGATACCAGCATCGTCTTGATGCCCTTGGCAGCACTAAACGCGTACATCCAGCTGACGAGTCCCAAATAGGACGAAACGCGC", "Fold change in RNA expression between the ON state and the OFF state": 0.7},
      {"molecule": "RA428 (nucleic acid, expressed or natural sequence) DNA: GCGCGTCCTGGATTCGCGGAAACGCGTACATCCAGCTGACGAGTCCGAGAATACCAGCATCGTCTTGATGCCCTTGGAAGTCTCCAAATAGGACGAAACGCGC", "Fold change in RNA expression between the ON state and the OFF state": 0.6},
      {"molecule": "RA422 (nucleic acid, expressed or natural sequence) DNA: GCGCGTCCTGGATTCGCGGAAACGCGTACATCCAGCTGACGAGTCCCAAATAGGACGACGGAATACCAGCATCGTCTTGATGCCCTTGGAAGTCCGAACGCGC", "Fold change in RNA expression between the ON state and the OFF state": 0.6},
      {"molecule": "RA420 (nucleic acid, expressed or natural sequence) DNA: GCGCGTCCTGGATTCGCGGAAACGGAGAATACCAGCATCGTCTTGATGCCCTTGGAAGTCTCCGTACATCCAGCTGACGAGTCCCAAATAGGACGAAACGCGC", "Fold change in RNA expression between the ON state and the OFF state": 0.6},
      {"molecule": "RA425 (nucleic acid, expressed or natural sequence) DNA: GCGCGTCCTGGATTCGCGGAAACGCGTACAGGAATACCAGCATCGTCTTGATGCCCTTGGAAGTCCTCCAGCTGACGAGTCCCAAATAGGACGAAACGCGC", "Fold change in RNA expression between the ON state and the OFF state": 0.6},
      {"molecule": "RA426 (nucleic acid, expressed or natural sequence) DNA: GCGCGTCCTGGATTCGCGGAAACGCGTACATCCAGCTGACGAGTCCCAAATAGGACGCCGGAATACCAGCATCGTCTTGATGCCCTTGGAAGTCCGGAAACGCGC", "Fold change in RNA expression between the ON state and the OFF state": 0.6},
      {"molecule": "RA409 (nucleic acid, expressed or natural sequence) DNA: GCGCGTCCTGGATTCGCCGAGAATACCAGCATCGTCTTGATGCCCTTGGAAGTCTCGGGAAACGCGTACATCCAGCTGACGAGTCCCAAATAGGACGAAACGCGC", "Fold change in RNA expression between the ON state and the OFF state": 0.7},
      {"molecule": "RA419 (nucleic acid, expressed or natural sequence) DNA: GCGCGTCCTGGATTCGCGGAAACGCGTACATCCAGCTGACGAGTCCCAAATAGGACGAAAGAATACCAGCATCGTCTTGATGCCCTTGGAAGTCTACGCGC", "Fold change in RNA expression between the ON state and the OFF state": 0.7},
      {"molecule": "RA423 (nucleic acid, expressed or natural sequence) DNA: GCGCGTCCTGGATTCGCGGAAACGCGTACATCCAGCTGACGAGCCGGAATACCAGCATCGTCTTGATGCCCTTGGAAGTCCGGTCCCAAATAGGACGAAACGCGC", "Fold change in RNA expression between the ON state and the OFF state": 0.6},
      {"molecule": "RA405 (nucleic acid, expressed or natural sequence) DNA: GCGCGTCCTGGATTCGCGGAAACGCGTACGAGAATACCAGCATCGTCTTGATGCCCTTGGAAGTCTCGCATCCAGCTGACGAGTCCCAAATAGGACGAAACGCGC", "Fold change in RNA expression between the ON state and the OFF state": 0.7},
      {"molecule": "RA408 (nucleic acid, expressed or natural sequence) DNA: GCGCGTCCTGGATTCGCGGAAACGCGGGAATACCAGCATCGTCTTGATGCCCTTGGAAGTCCTACATCCAGCTGACGAGTCCCAAATAGGACGAAACGCGC", "Fold change in RNA expression between the ON state and the OFF state": 0.7},
      {"molecule": "RA429 (nucleic acid, expressed or natural sequence) DNA: GCGCGTCCTGGATTCGCGGGGAATACCAGCATCGTCTTGATGCCCTTGGAAGTCCAAACGCGTACATCCAGCTGACGAGTCCCAAATAGGACGAAACGCGC", "Fold change in RNA expression between the ON state and the OFF state": 0.6},
      {"molecule": "RA415 (nucleic acid, expressed or natural sequence) DNA: GCGCGTCCTGGATTCGCGGACCGGAATACCAGCATCGTCTTGATGCCCTTGGAAGTCCGGAACGCGTACATCCAGCTGACGAGTCCCAAATAGGACGAAACGCGC", "Fold change in RNA expression between the ON state and the OFF state": 0.7}
    ]},
    {"tested_on": "Renilla luciferase RNA", "assay": "Barcoded aptazyme variant library screen: un-cleaved Renilla luciferase RNA by barcode read counts, HEK293-T cells", "assay_type": "cell-based", "conditions": "un-cleaved Renilla luciferase RNA, HEK293-T cells cultured with 1 mM theophylline (ON) over without theophylline (OFF); barcode read counts, triplicate", "outline": "as §1", "units": {"Fold change in RNA expression between the ON state and the OFF state": "fold"}, "values": [
      {"molecule": "RA041 (nucleic acid, expressed or natural sequence) DNA: GCGCGTCCTGGATTCGCGGAAACGCGAGTGATACCAGCATCGTCTTGATGCCCTTGGCAGCACTTACATCCAGCTGACGAGTCCCAAATAGGACGAAACGCGC", "Fold change in RNA expression between the ON state and the OFF state": 2.1},
      {"molecule": "RA040 (nucleic acid, expressed or natural sequence) DNA: GCGCGTCCTGGATTCGCGAGAATACCAGCATCGTCTTGATGCCCTTGGAAGTCTGAAACGCGTACATCCAGCTGACGAGTCCCAAATAGGACGAAACGCGC", "Fold change in RNA expression between the ON state and the OFF state": 2.1},
      {"molecule": "RA042 (nucleic acid, expressed or natural sequence) DNA: GCGCGTCCTGGATTCGCGGAAACGCGTACATCCAAGAATACCAGCATCGTCTTGATGCCCTTGGAAGTCTGCTGACGAGTCCCAAATAGGACGAAACGCGC", "Fold change in RNA expression between the ON state and the OFF state": 2.1}
    ]}
  ]
}
